Source: patent US20220251219A1 (published 2022)
Blank lines part the entries; values can stand above or below the binder they belong to.

Experiments:
[1] = target: T1, recombinant mouse Sortilin (mouse, UniProt Q6PHU5 74-825); assay: flow cytometry, 10 ug/ml antibody on 293 cells expressing recombinant mouse Sortilin, PE anti-human secondary
T1 construct: also called mSort
Procedure: (§1) Cells were harvested, plated at 10⁵/ml in a 96 well plate, washed, and incubated in 100 μl PBS containing 10 μg/ml Mab and 2% FBS for 1 hour in ice. Cells were then washed twice and incubated in 100 μl PBS+2% FBS containing 5 μg/ml PE-conjugated anti-human secondary antibody for 30 minutes in ice. Cells were washed twice in cold PBS and data was acquired on a BD FACS Canto. Data analysis and calculation of MFI values was performed with FlowJo (TreeStar) software version 10.0.7.

[2] = target: T2, recombinant human Sortilin (human, UniProt Q99523 78-830); assay: flow cytometry, 10 ug/ml antibody on 293 cells expressing recombinant human Sortilin, PE anti-human secondary
T2 construct: also called hSort; SORT1
Procedure: as §1

B1: anti-Sortilin antibody S-69 (antibody, V domains shown)
VH: QVQLQESGPGLVKPSQTLSLTCTVSGGSISSGGYYWSWIRQHPGKGLEWIGYIYYSGSTYYNPSLKSRVTISVDTSKNQFSLKLSSVTAADTAVYYCARDRGGTHFGADHYYYGMDVWGQGTMVTVSS
VL: EIVMTQSPATLSVSPGERATLSCRASQSVSSSLAWYQQKPGQAPRLLIYGASTRATGIPARFSGSGSGTEFTLTISSLQSEDFAVYYCQQAADWPITFGGGTKVEIK
notes: Tested as full IgG made in yeast
MFI binding [1]: 1890 MFI
MFI binding [2]: 8580 MFI

B2: anti-Sortilin antibody S-73 (antibody, V domains shown)
VH: QVQLQESGPGLVKPSQTLSLTCTVSGGSISSGTYYWSWIRQHPGKGLEWIGYIYYSGSTYYNPSLKSRVTISVDTSKNQFSLKLSSVTAADTAVYYCARGVGRYRVADYWGQGTLVTVSS
VL: EIVLTQSPATLSLSPGERATLSCRASQSVSSYLAWYQQKPGQAPRLLIYDASNRATGIPARFSGSGSGTDFTLTISSLEPEDFAVYYCQQASVYPPITFGGGTKVEIK
notes: as for B1
MFI binding [1]: 7670 MFI
MFI binding [2]: 8070 MFI

B3: anti-Sortilin antibody S-74 (antibody, V domains shown)
VH: QVQLQESGPGLVKPSQTLSLTCTVSGGSISSGTYYWSWIRQHPGKGLEWIGYIYYSGSTYYNPSLKSRVTISVDTSKNQFSLKLSSVTAADTAVYYCARGVGRYRVADYWGQGTLVTVSS
VL: EIVMTQSPATLSLSPGERATLSCRASQSVSSYLAWYQQKPGQAPRLLIYDSSNRATGIPARFSGSGSGTDFTLTISSLEPEDFAVYYCQQETNMPPITFGGGTKVEIK
notes: as for B1
MFI binding [1]: 7300 MFI
MFI binding [2]: 9210 MFI

Other lines, results leading:

MFI binding [1]: 4180 MFI
MFI binding [2]: 9680 MFI
B4: anti-Sortilin antibody S-76 (antibody, V domains shown)
VH: QVQLQESGPGLVKPSQTLSLTCTVSGGSISSGGYYWSWIRQHPGKGLEWIGSIYYSGSTYYNPSLKSRVTISVDTSKNQFSLKLSSVTAADTAVYYCARGVGIQQQLVLGFDPWGQGTLVTVSS
VL: DIQMTQSPSSLSASVGDRVTITCRASQSISSFLNWYQQKPGKAPKLLISAASSLQSGVPSRFSGSGSGTDFTLTISSLQPEDFATYYCQQSYREPITFGGGTKVEIK
notes: as for B1

MFI binding [1]: 7930 MFI
MFI binding [2]: 7120 MFI
B5: anti-Sortilin antibody S-78 (antibody, V domains shown)
VH: QLQLQESGPGLVKPSETLSLTCTVSGGSISSSDYYWGWIRQPPGKGLEWIGSIYYSGSTYYNPSLKSRVTISVDTSKNQFSLKLSSVTAADTAVYYCARSLAMSGAYFDLWGRGTLVTVSS
VL: not shown
notes: as for B1

MFI binding [1]: 16600 MFI
MFI binding [2]: 8940 MFI
B6: anti-Sortilin antibody S-81 (antibody, V domains shown)
VH: QLQLQESGPGLVKPSETLSLTCTVSGGSISSSSYYWGWIRQPPGKGLEWIGSIYYSGSTYYNPSLKSRVTISVDTSKNQFSLKLSSVTAADTAVYYCARERWDLGHGMDVWGQGTTVTVSS
VL: not shown
notes: as for B1

MFI binding [2]: 9300 MFI
B7: anti-Sortilin antibody S-83 (antibody, V domains shown)
VH: QLQLQESGPGLVKPSETLSLTCTVSGGSISSSSYYWGWIRQPPGKGLEWIGSIYYSGSTYYNPSLKSRVTISVDTSKNQFSLKLSSVTAADTAVYYCARGSPTWLRDYYMDVWGKGTTVTVSS
VL: EIVLTQSPATLSVSPGERATLSCRASQSVSSNLAWYQQKPGQAPRLLIYGASTRATGIPARFSGSGSGTEFTLTISSLQSEDFAVYYCQQYNAFPPTFGGGTKVEIK
notes: as for B1

MFI binding [1]: 15400 MFI
MFI binding [2]: 9240 MFI
B8: anti-Sortilin antibody S-84 (antibody, V domains shown)
VH: QLQLQESGPGLVKPSETLSLTCTVSGGSISSSSYYWGWIRQPPGKGLEWIGSISYSGSTYYNPSLKSRVTISVDTSKNQFSLKLSSVTAADTAVYYCARGGTTWLVADVWGQGTMVTVSS
VL: not shown
notes: as for B1
